Experimental data: US20230287376

How the values were obtained:
[1] = test system: SNAP-FCE-T7 RNAP fusion (Faustovirus / phage T7); conditions: 5'-triphosphate; soluble fusion
[2] = test system: Faustovirus capping enzyme (FCE) (Faustovirus); conditions: 5'-triphosphate; soluble, 37 C, 30 min, SAM, GTP

ppp25mer FAM RNA gave an activity [1] greater than 95 % capping and an activity [2] greater than 95 % capping.
